This is an account of results in article PMC11252482 (Acta Pharmaceutica Sinica. B, 2024).

Where a chain is given by its changes, count along the chain named. In names and notes the source's numbering stands.

This experiment concerns the target His-PKM2, purified recombinant (UniProt P14618-1 1-531). As to the kind of experiment: pull-down.

His-PKM2, purified recombinant, sequence (P14618 whole entry): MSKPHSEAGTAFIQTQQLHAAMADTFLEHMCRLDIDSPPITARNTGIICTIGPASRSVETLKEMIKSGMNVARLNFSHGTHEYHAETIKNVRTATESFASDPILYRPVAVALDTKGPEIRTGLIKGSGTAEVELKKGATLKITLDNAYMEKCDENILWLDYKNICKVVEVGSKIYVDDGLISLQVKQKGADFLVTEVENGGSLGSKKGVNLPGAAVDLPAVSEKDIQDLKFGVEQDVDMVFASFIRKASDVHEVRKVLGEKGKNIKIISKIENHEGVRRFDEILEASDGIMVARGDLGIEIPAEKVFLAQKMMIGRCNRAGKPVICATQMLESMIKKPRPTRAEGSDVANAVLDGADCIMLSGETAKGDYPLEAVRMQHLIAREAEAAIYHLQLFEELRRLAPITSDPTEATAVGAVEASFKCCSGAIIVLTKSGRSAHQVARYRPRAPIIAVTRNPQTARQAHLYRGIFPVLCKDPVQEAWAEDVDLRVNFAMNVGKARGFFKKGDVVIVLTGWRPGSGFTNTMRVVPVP

B1: GST-KHK-A (enzyme)
chain: MEEKQILCVGLVVLDVISLVDKYPKEDSEIRCLSQRWQRGGNASNSCTVLSLLGAPCAFMGSMAPGHVADFVLDDLRRYSVDLRYTVFQTTGSVPIATVIINEASGSRTILYYDRSLPDVSATDFEKVDLTQFKWIHIEGRNASEQVKMLQRIDAHNTRQPPEQKIRVSVEVEKPREELFQLFGYGDVVFVSKDVAKHLGFQSAEEALRGLYGRVRKGAVLVCAWAEEGADALGPDGKLLHSDAFPPPRVVDTLGAGDTFNASVIFSLSQGRSVQEALRFGCQVAGKKCGLQGFDGIV
As to B1, the binding result is reported as “binds”.

B2: GST-KHK-A G257R (enzyme)
chain: B1 chain with G257R
B2: the binding result is “binds”.
